Data published in the supplement of paper PMC10567573.

B1: PPP2R2B (parent)
chain: PSNRSFFSEIISSISDVKFSHSGR

Variants of: B1
Assay: protein stability index of a GFP-peptide fusion (GPS, HEK-293T) (PSI 1-6); higher = more stable
Settings: c terminus: a fixed tail appended
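Also: lentivirally expressed fusions sorted by FACS into six bins by GFP to DsRed ratio, PSI derived from sequencing read proportions per bin multiplied by bin number.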

Protein stability index of substitutions, site by site:
S8: D 2.32, E 2.57, F 2.11, G 2.41, H 2.31, I 2.84, K 2.36, L 2.04, M 2.43, N 2.44, P 2.69, Q 2.33, R 2.33, T 2.62, V 1.52, W 1.98, Y 1.91
E9: A 2.12, C 2.03, D 2.44, F 1.63, G 2.64, H 1.99, I 3.63, K 2.23, L 2.58, M 1.47, N 2.36, P 2.45, Q 2.31, R 2.2, S 2.26, T 2.17, V 2.15, W 1.91, Y 1.95
I10: A 3.33, C 2.91, D 3.13, E 3.64, F 2.43, G 3.39, H 2.98, K 3.11, L 1.79, M 2.62, N 3.09, P 3.44, Q 3.06, R 2.79, S 3.09, T 3.37, V 2.83, W 2.33, Y 3.01
I11: A 3.34, C 4.01, D 3.46, E 3.59, F 4.67, G 3.36, H 3.46, K 3, L 2.3, M 2.69, N 3.21, P 3.57, Q 3.04, R 2.97, S 3.2, T 3.19, V 3.26, W 2.59, Y 3.4
S12: A 2.23, C 2.06, D 2.54, E 2.57, F 1.72, G 2.54, H 2.32, I 3.11, K 2.49, L 1.69, M 2.04, N 2.5, P 2.65, Q 2.33, R 2.31, T 2.28, V 1.82, W 1.98, Y 2.3
S13: A 1.87, C 2.19, D 2.58, E 3.26, F 1.73, G 2.37, H 2.67, I 2.5, K 2.19, L 2.45, M 1.76, N 2.79, P 2.99, Q 2.82, R 2.63, T 2.64, V 1.99, W 2.34, Y 1.65
I14: A 2.79, C 2.46, D 3.04, E 4, F 2.17, G 3.26, H 2.79, K 3.17, L 2.54, M 2.6, N 3.05, P 3.05, Q 3.18, R 3.05, S 3.19, T 3.09, V 2.81, W 2.4, Y 2.19
S15: A 1.73, C 1.81, D 2.83, E 2.93, F 1.79, G 2.65, H 2.39, I 2.26, K 2.35, L 2.13, M 2.08, N 2.77, P 2.85, Q 2.31, R 2.25, T 2.05, V 2.27, W 2.34, Y 2.05
D16: A 2.34, C 1.92, E 2.28, F 1.66, G 2.29, H 2.19, I 1.74, K 2.13, L 2.05, M 2.02, N 2.57, P 2.56, Q 2.42, R 2.15, S 1.92, T 2.28, V 2.17
